{"source": "patent US8445275B2", "about": "“Induction of dendritic cell development with macrophage-colony stimulating factor (M-CSF)” (Bavarian Nordic A/S, priority 2007, dated 2013)", "key": {"[1]": {"tested_on": "M-pDC", "assay": "Activation and cytokine production of sorted M-pDC by TLR ligands", "format": "cell-based, mouse", "settings": "TLR2 ligand 1 μg/ml, 18 hrs", "experimental": "Activation of DC subsets and analysis of cytokine production by ELISA—Unsorted M-CSF or FL BM cultures or sorted DCs (0.25−0.5×10^6 cells/ml) were stimulated for 18-24 hrs in complete media with or without an added stimulus. The stimuli used were as follows: 1 μg/ml Pam-3-Cys, 100 μg/ml poly(I:C), 1 μg/ml LPS, 1 μg/ml R837, 1 mM Loxoribine, 0.5 μM CpG2216, 0.5 μM CpG1668. Culture supernatants were assayed for the presence of IFN-α by two-site ELISA as previously described (21). Other cytokines (IL-12 p70, IL-6, TNF-α, MCP-1 and IFN-γ) were measured using the Cytometric Bead Array, Mouse Inflammation Kit (Becton Dickinson). Stimulated DCs were blocked as stated above and stained with antibodies directed to CD8a, CD40, CD69, CD80 and CD86.\nThe survival of the M-pDC to these stimuli was extremely poor (<5%), data not shown.\nSimilar to FL-pDCs and ex-vivo pDCs, sorted M-pDC were activated with ligands for TLR7 and 9, as indicated by elevated expression of CD8a, CD69, CD86 and CD40 (FIG. 3B and data not shown). M-pDC only produced detectable cytokines to TLR7 and 9 ligands (FIG. 3C and data not shown). In response to a type A CpG-ODN (CpG2216) M-pDCs produced high levels of IFN-α (FIG. 3C). […] The production of IL-10, IL-12p70, MCP-1 and IFN-γ by the M-pDC was also tested but none of these cytokines were detected."}, "[2]": {"tested_on": "FL cultures (FL-DC generation, Flt3)", "assay": "Inhibitor effect on cell numbers in FL BM cultures (FL-DC generation)", "format": "cell-based, mouse", "settings": "range of concentrations", "experimental": "FIG. 4 and FIG. 8. The generation of M-DC is inhibited by a c-FMS inhibitor. Replicate M-CSF and FL cultures were conducted in parallel in the presence or absence of a range of A: cFMS Receptor Tyrosine Kinase Inhibitor or B: Flt3 Inhibitor concentrations. At the end of the culture period all cells were counted. The number of cells harvested from cultures without inhibitor was set at 100%. Cells from cultures containing inhibitor were expressed as a percentage of cells obtained in the absence of inhibitor. The data shown in each panel are from one experiment each, representative of 2 experiments carried out for each of the inhibitors.\nM-CSF and FL BM cultures—BM cells were flushed from femurs and tibiae of mice. Red cell lysis buffer (Sigma-Aldrich) was used to deplete red blood cells from the BM cell suspensions. BM cells were then either cultured directly or after depletion. To deplete, BM cells were incubated for 30 min with rat antibodies to CD11c and CD45R (B220) followed by 30 min incubation with goat anti-rat magnetic beads (Qiagen, Hilden, Germany). The depletion procedure routinely removed 65-80% of total BM cells. It should be noted that depletion with the beads only, in the absence of the rat antibodies, also depleted about 50% of the BM cells, presumably via FcR/Ig interactions. […]"}, "[3]": {"tested_on": "CMP, CLP, GMP from C57BL/6 BM", "assay": "M-CSF cultures of purified progenitors (CMP, CLP, GMP) spiked into UBC-GFP BM cells", "format": "cell-based, mouse", "settings": "M-CSF culture 6 days", "experimental": "CMP (Lin^−Sca-1^−ckit^+CD34^+FcR^int), CLP (Lin^−Sca-1^+c-kit^intIL-7R^+Thy-1^−) or granulocyte/macrophage progenitors (GMP, Lin^−Sca-1^−c-kit^+CD34^+FcR^hi) were isolated from C57BL/6 BM as previously described^21 and sorted to greater than 95% purity on a FACS-ARIA instrument. 2500 cells and serial 2-fold dilutions thereof were added to a 1 ml suspension of UBC-GFP BM cells in a 24-well plate. Final UBC-GFP BM cell concentration was 1.0×10^6 cells/ml. M-CSF or FL cultures were carried out in these wells as described above. After 6 days, samples were enumerated, analysed by FACS, and progeny arising from the C57BL/6 progenitors were gated as GFP^neg cells. To analyse M-CSFR (CD115) and Flt3 (CD135) expression on CLP (Lin^−Sca-1^+c-kit^intIL-7R^+Thy-1^−), lineage depleted cells were first stained with Sca-1-FITC and Thy-1-PE antibodies and the Sca-1^+Thy-1^− cells were sorted. These pre-enriched cells (>95% purity when reanalysed) were then stained with CD117-PE-CY7, IL-7R-APC and either CD115-PE or CD135-PE.\nThe identification of DC subtypes that could be generated in the absence of FL both in vivo and in vitro immediately raises the question of the nature of their precursor cells. It has been considered whether this factor acts on an early lineage progenitor or, since M-CSF is traditionally considered a ‘myeloid’ growth factor, on a later precursor within the myeloid lineage to generate M-DC. CMP, GMP and CLP were purified from mouse BM. Serial dilutions of the purified cell populations were admixed with ‘feeder’ UBC-GFP BM cells and M-CSF cultures were carried out for 6 days."}, "[4]": {"settings": "reported in the literature; cited from earlier work"}, "[5]": {"tested_on": "BM cells depleted of B220+ and CD11c+ cells", "assay": "pDC/cDC development in M-CSF BM cultures (CD11c/CD45RA staining)", "format": "cell-based, mouse", "experimental": "(§1) M-CSF and FL BM cultures—BM cells were flushed from femurs and tibiae of mice. Red cell lysis buffer (Sigma-Aldrich) was used to deplete red blood cells from the BM cell suspensions. BM cells were then either cultured directly or after depletion. To deplete, BM cells were incubated for 30 min with rat antibodies to CD11c and CD45R (B220) followed by 30 min incubation with goat anti-rat magnetic beads (Qiagen, Hilden, Germany). The depletion procedure routinely removed 65-80% of total BM cells. It should be noted that depletion with the beads only, in the absence of the rat antibodies, also depleted about 50% of the BM cells, presumably via FcR/Ig interactions. Total BM cells or depleted BM cells were cultured at 1.5×10^6 cells/ml in RPMI-1640 media (Gibco) supplemented with 10% FCS, 50 μM beta-mercaptoethanol, 100 IU/ml penicillin/streptomycin (complete media) and either 20 ng/ml recmuM-CSF or rechu-MCSF or 35 ng/ml recmuFL for 6-8 days at 37° C. in a humidified atmosphere containing 5% CO2. The M-CSF cultures were fed with fresh M-CSF every 3 days, without media change.\nSurface staining of M-CSF or FL BM cultures—Harvested cells were washed in PBS containing 2% FCS and 2 mM EDTA (FACS buffer). FcR binding was then blocked by incubation with 1 mg/ml purified anti CD16/32 monoclonal antibody (clone 2.4G2) for 20 mins on ice. An equal volume of 2× concentrated specific antibody stain was then added to the cell suspension and incubated for a further 20 mins. Cells were washed in FACS buffer and resuspended in FACS buffer containing 1 μg/ml propidium iodide.\nIndeed, a population of 10-20% of cells within the cultures expressed high levels of CD45RA and medium levels of CD11c, together with the lack of CD3, CD19 or CD49b or NK1.1 expression, low side scatter and forward scatter this was commensurate with the phenotype of pDCs (FIG. 1B and data not shown).\nIt was clear that M-CSF could drive pDC development yet the yield of pDCs was substantially less then that obtained with FL. […]"}, "[6]": {"tested_on": "mouse bone marrow (BM) cells", "assay": "IFN-α production of M-CSF BM cultures in response to CpG-2216 (ELISA)", "format": "cell-based", "experimental": "as §1, with “The M-CSF cultures were fed with fresh M-CSF every 3 days, without media change.” left out\nActivation of DC subsets and analysis of cytokine production by ELISA—Unsorted M-CSF or FL BM cultures or sorted DCs (0.25−0.5×10^6 cells/ml) were stimulated for 18-24 hrs in complete media with or without an added stimulus. […] Other cytokines (IL-12 p70, IL-6, TNF-α, MCP-1 and IFN-γ) were measured using the Cytometric Bead Array, Mouse Inflammation Kit (Becton Dickinson). […]"}, "[7]": {"tested_on": "C57BL/6 or FLKO mice", "assay": "In vivo M-CSF treatment, DC numbers in spleen and peritoneal lavage", "set-up": "species or system mouse", "experimental": "In vivo M-CSF treatment—Wild type and FLKO mice were treated ip with 10 μg of M-CSF in 0.01% BSA (100 μl volume), or with vehicle alone, for five consecutive days. At the end of five days mice were sacrificed. The peritoneum was flushed 3 times with Complete media and then organs were collected for DC purification.\nEx vivo DC purification—DCs were purified from spleens of M-CSF or vehicle treated mice essentially as previously described (21), using FACS buffer, RPMI and 1.077A Nycodenz (Progen Biotechnik GmbH, Heidelberg, Germany) that was adjusted to mouse osmolarity (308 mOsm).\nSpecifically cDC were reduced about 2-fold and pDC about 3-fold. This was substantially less of an effect than that seen in mice lacking FL but nevertheless, lack of M-CSF did result in reduced DC numbers, further substantiating the assumption that M-CSF is a DC poietin. To further validate the studies initiated by MacDonald et al (2005), M-CSF was administered to mice in order to analyze whether M-CSF could actually increase DC numbers in vivo. According to other references in the prior art, a range of exogenous M-CSF concentrations in the range of 10 to 200 μg/day has been administered. The source of M-CSF used has varied widely and consequently, as well as the specific activity. It is thus impossible to gauge an optimal or saturating level of M-CSF to administer. Moreover, it has been reported that M-CSF has an extremely short half-life of only 10 mins in the circulation^28. Due to the prohibitive cost of commercial M-CSF with a determined specific activity a ‘proof of principal’ trial experiment was conducted and 10 μg/day of M-CSF to C57BL/6 or FLKO mice for 5 days were administered. This amount was neither titrated nor was it attempted to extend the application period. […] Said observations indicate that M-CSF indeed was inducing an effect in vivo."}, "[8]": {"settings": "10 μg/day ip for 5 days, C57BL/6 and FLKO mice, vs vehicle"}}, "data": [{"molecule": "palmitoyl-3-cysteine-serine-lysine-4 [Pam-3-Cys]", "values": [{"measurement": "surface activation of M-pDC", "setting": "[1]", "value": "very minor surface activation"}]}, {"molecule": "Flt3 Inhibitor II", "values": [{"measurement": "effect on generation of FL-DC", "setting": "[2]", "value": "highly inhibitory"}]}, {"molecule": "M-CSF: Recombinant murine or human Macrophage-Colony Stimulating Factor obtained from Tebu-Bio / R&D Systems (protein, UniProt P09603 33-554, looked up) Macrophage colony-stimulating …: EEVSEYCSHMIGSGHLQSLQRLIDSQMETSCQITFEFVDQEQLKDPVCYLKKAFLLVQDIMEDTMRFRDNTPNAIAIVQLQELSLRLKSCFTKDYEEHDKACVRTFYETPLQLLEKVKNVFNETKNLLDKDWNIFSKNCNNSFAECSSQDVVTKPDCNCLYPKAIPSSDPASVSPHQPLAPSMAPVAGLTWEDSEGTEGSSLLPGEQPLHTVDPGSAKQRPPRSTCQSFEPPETPVVKDSTIGGSPQPRPSVGAFNPGMEDILDSAMGTNWVPEEASGEASEIPVPQGTELSPSRPGGGSMQTEPARPSNFLSASSPLPASAKGQQPADVTGTALPRVGPVRPTGQDWNHTPQKTDHPSALLRDPPEPGSPRISSLRPQGLSNPSTLSAQPQLSRSHSSGSVLPLGELEGRRSTRDRRSPAEPEGGPASEGAARPLPRFNSVPLTDTGHERQSEGSFSPQLQESVFHLLVPSVILVLLAVGGLLFYRWRRRSHQEPQRADSPLEQPEGSPLTQDDRQVELPV", "values": [{"measurement": "output of M-cDC per input progenitor cell", "setting": "[3]; CLP", "value": "about 5"}, {"measurement": "output of M-pDC per input progenitor cell", "setting": "[3]; CLP", "value": "at least 10"}, {"measurement": "output of M-cDC per input progenitor cell", "setting": "[3]; CMP", "value": "8-10"}, {"measurement": "M-DC production from progenitors", "setting": "[3]; GMP", "value": "not capable of M-DC production"}, {"measurement": "half-life in the circulation", "setting": "[4]", "value": 10, "unit": "min"}, {"measurement": "pDC development in BM cultures from FLKO mice", "setting": "[5]; FLKO BM depleted of DC, exogenous M-CSF only", "value": "pDCs developed even in the absence of FL"}, {"measurement": "population of cells with pDC phenotype (CD45RA high, CD11c medium) within the cultures", "setting": "[5]; non-adherent M-CSF-generated cells, day 6", "value": "10-20%"}, {"measurement": "efficiency of pDC yield compared with FL", "setting": "[5]; side by side after six days of culture, less efficient than FL", "value": "approximately 10 fold"}, {"measurement": "CpG-induced IFN-α producing capacity", "setting": "[6]; DC-depleted BM cells cultured with M-CSF for 6 days, non-adherent cells", "value": "potent IFN-α producing capacity was detected again"}, {"measurement": "IFN-α production in response to CpG-2216", "setting": "[6]; total BM cells cultured with M-CSF, 0-7 days, adherent and non-adherent cells", "value": "high levels"}, {"measurement": "increase of cells that resembled DC in the peritoneal lavage", "setting": "[7]; 10 μg/day for 5 days, a C57BL/6 mouse, data not shown", "value": "greater than 6 fold"}, {"measurement": "F4/80hi cells in peritoneal lavages", "setting": "[7]; 10 μg/day for 5 days, data not shown", "value": "huge increase"}, {"measurement": "total splenocytes", "setting": "[7]; 10 μg/day ip for 5 days", "value": "did not induce an increase"}, {"measurement": "increase in cDC numbers in the spleen", "setting": "[7]; [8]", "value": "about 2 fold"}, {"measurement": "increase in pDC numbers in the spleen", "setting": "[7]; [8]", "value": "about 2 fold"}]}]}
